Test results taken from patent US20210292397A1 (LA TROBE UNIVERSITY, published 2021).

T1: Fibrinogen
T1 construct: also called human fibrinogen
T1 alpha: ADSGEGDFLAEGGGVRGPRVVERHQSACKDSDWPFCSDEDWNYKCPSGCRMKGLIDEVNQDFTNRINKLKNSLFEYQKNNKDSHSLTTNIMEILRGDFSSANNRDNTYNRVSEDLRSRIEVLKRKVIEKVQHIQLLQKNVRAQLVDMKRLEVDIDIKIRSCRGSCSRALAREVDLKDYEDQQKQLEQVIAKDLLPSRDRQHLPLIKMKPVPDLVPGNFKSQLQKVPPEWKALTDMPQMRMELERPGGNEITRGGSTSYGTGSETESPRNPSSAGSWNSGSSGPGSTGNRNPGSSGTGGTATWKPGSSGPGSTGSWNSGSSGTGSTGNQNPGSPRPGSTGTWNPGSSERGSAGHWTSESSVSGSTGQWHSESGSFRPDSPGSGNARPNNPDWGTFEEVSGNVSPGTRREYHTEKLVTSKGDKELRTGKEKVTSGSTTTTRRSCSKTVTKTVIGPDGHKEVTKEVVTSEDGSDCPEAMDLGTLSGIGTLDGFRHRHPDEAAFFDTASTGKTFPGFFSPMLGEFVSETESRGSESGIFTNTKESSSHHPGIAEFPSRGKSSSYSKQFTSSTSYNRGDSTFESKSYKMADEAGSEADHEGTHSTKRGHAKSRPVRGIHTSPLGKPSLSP
T1 beta: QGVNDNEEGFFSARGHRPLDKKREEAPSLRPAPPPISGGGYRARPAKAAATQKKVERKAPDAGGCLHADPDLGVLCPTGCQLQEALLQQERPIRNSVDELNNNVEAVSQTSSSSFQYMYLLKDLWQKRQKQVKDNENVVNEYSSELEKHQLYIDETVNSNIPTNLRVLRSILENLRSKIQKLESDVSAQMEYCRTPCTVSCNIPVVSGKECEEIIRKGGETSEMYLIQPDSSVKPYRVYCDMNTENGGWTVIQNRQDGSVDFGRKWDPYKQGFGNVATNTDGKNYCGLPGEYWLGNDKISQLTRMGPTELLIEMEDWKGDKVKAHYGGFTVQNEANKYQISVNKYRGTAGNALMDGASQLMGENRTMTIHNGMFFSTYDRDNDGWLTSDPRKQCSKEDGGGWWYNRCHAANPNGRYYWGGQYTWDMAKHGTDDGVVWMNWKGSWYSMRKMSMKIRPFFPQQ
T1 gamma: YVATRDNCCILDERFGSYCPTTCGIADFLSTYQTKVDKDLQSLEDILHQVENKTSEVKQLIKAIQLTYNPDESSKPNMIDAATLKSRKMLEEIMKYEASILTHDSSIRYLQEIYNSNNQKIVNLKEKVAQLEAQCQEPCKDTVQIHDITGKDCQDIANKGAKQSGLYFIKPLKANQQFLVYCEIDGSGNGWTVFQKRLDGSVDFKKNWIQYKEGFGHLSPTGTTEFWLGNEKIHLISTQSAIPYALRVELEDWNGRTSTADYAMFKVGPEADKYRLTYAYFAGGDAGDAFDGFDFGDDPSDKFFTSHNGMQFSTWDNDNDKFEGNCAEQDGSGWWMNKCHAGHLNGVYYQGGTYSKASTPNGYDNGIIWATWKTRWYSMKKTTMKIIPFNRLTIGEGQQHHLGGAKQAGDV

B1: UpaB α-domain (α^UpaB) from UPEC strain CFT073 (other)
chain: TDSTVSTDPVTLNTEKTTLDQDVVINGDNKITAVTIETSDSDKDLNVTFGGHDITAASTVNQDFVEGVKVSGNKNVVINATDSTITAQGEGTYVRTAMVIDSTGDVVVNGGNFVAKNEKGSATGISLEATTGNNLTLNGTTINAQGNKSYSNGSTAIFAQKGNLLQGFDGDATDNITLADSNIINGGIETIVTAGNKTGIHTVNLNIKDGSVIGAANNKQTIYASASAQGAGSATQNLNLSVADSTIYSDVLALSESENSASTTTNVNMNVARSYWEGNAYTFNSGDKAGSDLDINLSDSSVWKGKVSGAGDASVSLQNGSVWNVTGSSTVDALAVKDSTVNITKATVNTGTFASQNGTLIVDASSENTLDISGKASGDLRVYSAGSLDLINEQTAFISTGKDSTLKATGTTEGGLYQYDLTQGADGNFYFVKNTHKASNASSVIQAMAAAPANVANLQADTL
notes: also called α^UPaB (native)
B2: Ag43 passenger domain (Ag43^α) from UPEC strain UTI189 (other)
chain: ADTVVQAGETVNGGTLTNHDNQIVLGTANGMTISTGLEYGPDNEANTGGQWIQNGGIANNTTVTGGGLQRVNAGGSVSDTVISAGGGQSLQGQAVNTTLNGGEQWVHEGGIATGTVINEKGWQAVKSGAMATDTVVNTGAEGGPDAENGDTGQTVYGDAVRTTINKNGRQIVAAEGTANTTVVYAGGDQTVHGHALDTTLNGGYQYVHNGGTASDTVVNSDGWQIIKEGGLADFTTVNQKGKLQVNAGGTATNVTLTQGGALVTSTAATVTGSNRLGNFTVENGNADGVVLESGGRLDVLEGHSAWKTLVDDGGTLAVSAGGKATDVTMTSGGALIADSGATVEGTNASGKFSIDGISGQASGLLLENGGSFTVNAGGLASNTTVGHRGTLTLAAGGSLSGRTQLSKGASMVLNGDVVSTGDIVNAGEIRFDNQTTPDAALSRAVAKGDSPVTFHKLTTSNLTGQGGTINMRVRLDGSNASDQLVINGGQATGKTWLAFTNVGNSNLGVATSGQGIRVVDAQNGATTEEGAFALSRPLQAGAFNYTLNRDSDE
B3: Ag43a passenger domain (Ag43a^α) from UPEC strain CFT073 (other)
chain: ADIVVHPGETVNGGTLVNHDNQFVSGTANGVTVSTGLELGPDSDENTGGQWIKAGGTGRNTTVTANGRQIVQAGGTASDTVIRDGGGQSLNGLAVNTTLDNRGEQWVHGGGKAAGTIINQDGYQTIKHGGLATGTIVNTGAEGGPESENVSSGQMVGGTAESTTINKNGRQVIWSSGMARDTLIYAGGDQTVHGEAHNTRLEGGNQYVHNGGTATETLINRDGWQVIKEGGTAAHTTINQKGKLQVNAGGKASDVTQNTGGALVTSTAATVTGTNRLGAFSVVAGKADNVVLENGGRLDVLSGHTATNTRVDDGGTLDIRNGGAATTVSMGNGGVLLADSGAAVSGTRSDGKAFSIGGGQADALMLEKGSSFTLNAGDTATDTTVNGGLFTARGGTLAGTTTLNNGAILTLSGKTVNNDTLTIREGDALLQGGSLTGNGSVEKSGSGTLTVSNTTLTQKAVNLNEGTLTLNDSTVTTDVIAQRGTALKLTGSTVLNGAID
notes: also called Ag43^α; α^43a
B4: Ag43b passenger domain (Ag43b^α) from uropathogenic E. coli strain CFT073 (other)
chain: ADSVVPAGETVNGGTLINHDRQFVSGTADGMTVSTGLELGADSDNNTGGQQIARGGTARNTRVTANGLQDVMAGGSTSDTVISTGGGQNLRGKASGTVLNGGDQWIHAGGRASGTVINQDGYQTIKHGGLVTGTIVNTGAEGGPDSENVSTGQMVGGIAESTTINKNGRQVIWSSGIARDTLIYTGGDQTVHGEAHNTRLEGGNQYVHKYGLALNTVINEGGWQVVKAGGTAGNTTINQNGELRVHAGGEASDVTQNTGGALVTSTAATVTGTNRLGAFSVVEGKADNVVLENGGRLDVLSGHTATRTLVDDGGTLDVRNGGTATAVSMGNGGVLLADSGAAVSGTRSDGTAFRIGGGQADALMLEKGSSFTLNAGDTATDTTVNGGLFTARGGSLAGTTTLNNGATFTLAGKTVNNDTLTIREGDALLQGGALTGNGRVEKSGSGTLTVSNTTLTQKAVNLNEGTLTLNDSTVTTDIIAHRGTALKLTGSTVLNGAIDPTNVTLTSGATWNIPDNATVQSVVDDLSHAGQIHFTSARTGKFVPTTLQVKNLNGQNGTISLRVRPDMAQNNADRLVIDGGRATGKTILNLVNAGNSGTGLATTGKGIQVVEAINGATTEEGAFVQGNMLQAGAFNYTLNRDSDESWYLRSEE
notes: also called Ag43bCFT073^α
B5: TibA passenger domain (TibA^α) from the enterotoxigenic E. coli strain H10407 (other)
chain: YDNQTIGRGETSKSMHLSAGDTAKNTTINSGGKQYVSSGGSATSTTINIGGVQHVSSGGSATSSTINSGGHQHVSSGGSATNTTVNNGGRQTVFSGGSAMGTIINSGGDQYVISGGSATSASVTSGARQFVSSGGIVKATSVNSGGRQYVRDGGSATDTVLNNTGRQFVSSGGSAAKTTINSGGGMYLYGGSATGTSIYNGGRQYVSSGGSATNTTVYSGGRQHVYIDGNVTETTITSGGMLQVEAGGSASKVIQNSGGAVITNTSAAVSGTNDNGSFSIAGGSAVNMLLENGGYLTVFDGHQASDTMVGSDGTLDVRSGGVLYGTTTLTDKGALVGDVVTNEGNLYYLNNSTATFTGTLTGTGTLTQEGGNTRFSGLLSQDGGIFLQSGGAMTMDALQAKANVTTQSGTTLTLDNGTILTGNVAGDSTGAGDMAVKGASVWHLDGDSTVGALTLDNGTVDFRPSTTTRMTPAFQAVSLALGSLSGSGTFQMNTDIASHTGDMLNVAGNASGNFVLDIKNTGLEPVSAGAPLQVVQTGGGDAAFTLKGGKVDAGTWEYGLSKENTNWYLKADT
B6: Fab10C12 (Fab, V domains shown)
VH: QVQLQQPGTELVKPGASVKLSCKASGYTFTNYWMHWVKQRPGQGLEWIGNIGPSSGNTNYNENFKTKATLTVDKSSSTAYMQLSSLTSEDSAVYFCARWGSIRAMDYWGQGTSVTVSS
VL: SIVMTQTPKFLFVSVGDRVTITCKASQSVNNDVAWYQQKPGQSPKLLIYFASNRYTGVPDRFTGSGYGTDFTFTINTVQAEDLAVYFCQQDYSSPQTFGGGTKLEVTR
B7: Ag43 passenger domain (Ag43^α) from E. coli strain EDL933 (other)
chain: ADKVVQAGETVNDGTLTNHDNQIVFGTANGMTISTGLELGPDSEENTGGQWIQNGGIAGNTTVTTNGRQVVLEGGTASDTVIRDGGGQSLNGLAVNTTLNNRGEQWVHEGGVATGTIINRDGYQSVKSGGLATGTIINTGAEGGPDSDNSYTGQKVQGTAESTTINKNGRQIILFSGLARDTLIYAGGDQSVHGRALNTTLNGGYQYVHRDGLALNTVINEGGWQVVKAGGAAGNTTINQNGELRVHAGGEATAVTQNTGGALVTSTAATVIGTNRLGNFTVENGKADGVVLESGGRLDVLESHSAQNTLVDDGGTLAVSAGGKATSVTITSGGALIADSGATVEGTNASGKFSIDGTSGQASGLLLENGGSFTVNAGGQAGNTTVGHRGTLTLAAGGSLSGRTQLSKGASMVLNGDVVSTGDIVNAGEIRFDNQTTPNAALSRAVAKSNSPVTFHKLTTTNLTGQGGTINMRVRLDGSNASDQLVINGGQATGKTWLAFTNVGNSNLGVATTGQGIRVVDAQNGATTEEGAFALSRPLQAGAFNYTLNRDSDE

Tests used:
Fibrinogen = target: T1, Fibrinogen; assay: ELISA, absorbance at 405 nm, n=9, PBS as control
human fibronectin = human fibronectin (human, UniProt P02751 32-2477)
human fibronectin, sequence (P02751 32-2477 limits assumed): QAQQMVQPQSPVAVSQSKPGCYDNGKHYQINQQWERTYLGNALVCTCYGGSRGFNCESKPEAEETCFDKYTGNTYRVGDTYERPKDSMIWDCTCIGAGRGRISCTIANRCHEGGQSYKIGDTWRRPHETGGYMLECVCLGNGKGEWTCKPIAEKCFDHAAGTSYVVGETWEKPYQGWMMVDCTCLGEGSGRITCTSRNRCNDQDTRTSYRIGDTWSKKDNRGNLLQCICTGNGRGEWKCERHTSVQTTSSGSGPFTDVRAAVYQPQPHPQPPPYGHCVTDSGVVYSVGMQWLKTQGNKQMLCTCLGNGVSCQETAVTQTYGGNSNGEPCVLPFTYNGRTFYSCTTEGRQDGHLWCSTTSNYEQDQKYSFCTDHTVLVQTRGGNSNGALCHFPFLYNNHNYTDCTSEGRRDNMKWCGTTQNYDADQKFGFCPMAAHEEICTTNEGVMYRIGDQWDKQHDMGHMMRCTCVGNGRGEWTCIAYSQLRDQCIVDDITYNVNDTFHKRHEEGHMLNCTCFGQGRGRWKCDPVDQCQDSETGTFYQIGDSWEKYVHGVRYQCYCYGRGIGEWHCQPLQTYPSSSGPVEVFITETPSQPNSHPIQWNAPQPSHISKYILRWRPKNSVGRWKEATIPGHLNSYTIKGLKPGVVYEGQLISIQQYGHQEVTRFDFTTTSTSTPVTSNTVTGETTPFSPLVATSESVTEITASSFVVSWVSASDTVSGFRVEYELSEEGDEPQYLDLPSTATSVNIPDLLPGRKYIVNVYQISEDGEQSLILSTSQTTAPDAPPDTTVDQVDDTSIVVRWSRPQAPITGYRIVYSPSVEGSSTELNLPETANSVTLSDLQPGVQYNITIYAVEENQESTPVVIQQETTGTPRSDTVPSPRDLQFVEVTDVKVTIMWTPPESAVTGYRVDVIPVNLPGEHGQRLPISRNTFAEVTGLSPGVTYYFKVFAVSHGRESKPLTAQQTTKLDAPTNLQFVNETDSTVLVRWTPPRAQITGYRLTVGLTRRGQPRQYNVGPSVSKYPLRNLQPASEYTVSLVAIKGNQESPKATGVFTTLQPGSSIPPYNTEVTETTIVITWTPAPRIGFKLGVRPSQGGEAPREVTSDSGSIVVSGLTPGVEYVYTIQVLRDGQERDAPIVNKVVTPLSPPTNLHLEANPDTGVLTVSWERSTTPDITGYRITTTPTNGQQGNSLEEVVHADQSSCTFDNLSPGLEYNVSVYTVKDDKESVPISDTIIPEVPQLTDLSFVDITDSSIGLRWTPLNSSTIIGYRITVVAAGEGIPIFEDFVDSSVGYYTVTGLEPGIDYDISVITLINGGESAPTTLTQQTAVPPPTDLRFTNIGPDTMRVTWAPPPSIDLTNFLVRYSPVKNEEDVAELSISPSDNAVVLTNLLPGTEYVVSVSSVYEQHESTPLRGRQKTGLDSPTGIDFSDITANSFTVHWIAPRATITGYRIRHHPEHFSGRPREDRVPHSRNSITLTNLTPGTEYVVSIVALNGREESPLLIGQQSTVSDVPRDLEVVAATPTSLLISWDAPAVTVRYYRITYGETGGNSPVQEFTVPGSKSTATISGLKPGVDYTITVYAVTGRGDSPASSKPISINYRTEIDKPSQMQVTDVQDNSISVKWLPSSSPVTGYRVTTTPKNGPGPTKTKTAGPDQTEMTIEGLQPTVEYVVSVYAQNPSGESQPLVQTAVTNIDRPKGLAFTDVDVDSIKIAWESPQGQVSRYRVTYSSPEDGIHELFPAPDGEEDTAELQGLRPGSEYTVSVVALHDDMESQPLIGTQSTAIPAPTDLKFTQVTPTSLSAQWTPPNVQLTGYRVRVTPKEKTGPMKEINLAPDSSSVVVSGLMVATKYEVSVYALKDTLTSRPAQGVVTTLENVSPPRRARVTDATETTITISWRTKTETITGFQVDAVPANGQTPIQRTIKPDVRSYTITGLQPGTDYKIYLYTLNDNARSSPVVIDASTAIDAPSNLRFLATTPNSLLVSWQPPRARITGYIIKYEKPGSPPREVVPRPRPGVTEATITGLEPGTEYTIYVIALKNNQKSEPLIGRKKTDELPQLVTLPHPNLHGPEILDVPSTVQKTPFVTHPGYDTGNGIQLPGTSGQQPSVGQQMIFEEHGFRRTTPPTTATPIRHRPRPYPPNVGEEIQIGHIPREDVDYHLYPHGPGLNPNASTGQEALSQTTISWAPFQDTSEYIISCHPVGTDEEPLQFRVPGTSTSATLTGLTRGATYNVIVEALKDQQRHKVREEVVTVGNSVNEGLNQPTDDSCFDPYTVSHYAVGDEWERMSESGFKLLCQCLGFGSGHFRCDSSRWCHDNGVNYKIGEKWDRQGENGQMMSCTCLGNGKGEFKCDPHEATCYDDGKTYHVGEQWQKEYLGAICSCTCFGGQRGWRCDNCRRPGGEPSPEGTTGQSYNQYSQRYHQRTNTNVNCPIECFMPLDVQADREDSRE

[1] = target: the molecule itself; assay: crystal structure (FIG. 12B)
[2] = target: the molecule itself; assay: crystal structure (FIG. 1B)
[3] = target: the molecule itself; assay: crystal structure (FIG. 12C)
[4] = target: the molecule itself; assay: crystal structure (FIG. 12D)
[5] = target: B3
[6] = target: the molecule itself; assay: crystal structure (FIG. 12A)

**Q.** Does B1 bind (Fibrinogen)?
**A.** no binding

**Q.** What about the Kd (human fibronectin) of the same binder?
**A.** 45.2 µM

**Q.** Does B2 bind [1]?
**A.** binds

**Q.** Does B3 bind [2]?
**A.** binds

**Q.** Does B4 bind [3]?
**A.** binds

**Q.** Does B5 bind [4]?
**A.** binds

**Q.** B6 was tested. Which Kd [5] did it give?
**A.** 0.00728 µM

**Q.** Does B7 bind [6]?
**A.** binds
